# Measurements reported in patent US20230158109A1, “USE OF CD83 IN COMBINATION THERAPIES” (Colmmune, Inc., priority 2006, published 2023).
# “Also recorded” adds a separate entry of the source.
# Key:
# [1] = test system: C3H Hearts in BALB/c Recipients; assay: Heterotopic heart transplantation, graft survival, C3H to BALB/c; settings: sCD83 100 μg i.p. daily day -1 to 28, sirolimus 2 mg/kg oral day 0-14, anti-CD45RB 100 μg i.v. day 0-14
# Experimental: (§2) Hearts were removed from donor mice as indicated and transplanted into the peritoneal cavity of recipient mice (i.e., heterotopic transplantation). Recipient mice were treated as indicated, with some treatments beginning prior to transplantation. Survival of the allograft was monitored and scored as follows: “A,” beating strongly; “B,” mild decline in the intensity of pulsation; “C,” noticeable decline in the intensity of pulsation; “D,” complete cessation of cardiac impulses. Mean survival time of the transplanted tissue was determined for each treatment.
# In a first set of experiments, C3H donor mice and BALB/c recipient mice were used. In this set of experiments, sCD83 treatment began on day −1 (i.e., the day prior to transplantation) and lasted until day 28; each day, 100 μg of sCD83 was administered to each mouse by intraperitoneal injection. Sirolimus treatment began on day 0 (i.e., the day of transplantation) and continued until day 14; each day, 2 mg/kg of sirolimus was administered orally to each mouse. Anti-CD45RB treatment began on day 0 and continued until day 14; each day, 100 μg of anti-CD45RB (BioExpress, Inc., West Lebanon, New Hampshire) was administered to each mouse intravenously.
# [2] = test system: C3H Hearts in C57BL/6 Recipients; assay: Heterotopic heart transplantation, graft survival, C3H to C57BL/6
# Experimental: as §2
# In a further set of experiments, C3H mouse hearts were transplanted into the peritoneal cavity of C57BL/6 mice (results shown in Table 3 and FIG. 7). […] Other treatments included subtherapeutic doses of either anti-CD45RB monoclonal antibody (“mAb”) (i.e., 100 μg/mouse every day from days 0 through 14 by intravenous injection) or sirolimus (i.e., 2 mg/kg every day from days 0 through 14 by oral administration (“p.o.”)).
# [3] = test system: C57BL/6 Hearts in BALB/c Recipients; assay: Intra-abdominal heterotopic heart transplantation, graft survival, C57BL/6 to BALB/c; format: in vivo, mouse; settings: sCD83 100 μg i.p. daily day -1 to 7, then every other day to day 28, tacrolimus 8 mg/kg/day oral, MMF 80 mg/kg/day oral
# Experimental: Treatment with tacrolimus was by daily oral administration of a subtherapeutic dose of 8 mg/kg/day, and treatment with MMF was by daily oral administration of a low dose of 80 mg/kg/day.
# In further experiments, transplant recipients were treated with a shorter course of administrations and a different route of administration.
# [4] = test system: spleen cells; assay: KLH re-stimulation assay, CD83 window of effectiveness; format: in vivo, CBA mice; settings: sCD83 100 μg 10 times every second day; KLH after 11 days; spleen cells ten days later
# Experimental: Mice were evaluated to determine the period of time after administration of CD83 in which a subject would be tolerized to another administered antigen. Soluble CD83 (100 μg) was administered to CBA mice by injection 10 times every second day. After 11 days, treated animals were immunized with keyhole limpet hemocyanin (KLH, 10 μg). Ten days later, spleen cells were removed and re-stimulation assays were performed as described in International patent publication WO 2004/046182, the contents of which are incorporated by reference.
# [5] = test system: B cells of transplant recipient; assay: Ex vivo IgM and IgG production by transplant recipient B cells; set-up: species or system mouse; settings: C3H heart in C57BL/6; sCD83 100 μg daily i.p.; B cells day 8, LPS, 72 hours
# Experimental: IgM & IgG production: C57B1/6 mice were given a heterotopic cardiac allograft from a C3H mouse. Mice then were left untreated or were treated with a daily dose of 100 μg of sCD83 by intraperitoneal injection. Mice were then sacrificed on day 8, which was approximately the mean survival time of untreated mice. B cells were harvested from the spleens of recipient mice and cultured at 2×10^6 B-cells/well with 20 ug/mL LPS (to induce antibody production, with no added sCD83). After 72 hours of culture, supernatants were harvested and IgM and IgG production measured by ELISA.
# Eight days after transplantation (when the transplant would typically be rejected in untreated mice), the mice were sacrificed. B cells were purified from recipient mice, cultured, and stimulated with LPS. After 72 hours of culture, supernatants were collected and IgM and IgG production was measured using ELISA.
# [6] = test system: CD4+ T cells; assay: Regulatory T cell generation from purified CD4+ T cells; format: cell-based, cynomolgus monkeys; settings: CD4+ T cells stimulated for 6 days
# Description: To evaluate the effect of sCD83 on CD4^+ T cells, these cells were purified from cynomolgus monkeys and then stimulated in the presence or absence of sCD83 or anti-CD28 mAb for 6 days. Cells were then stained to identify regulatory T cells (i.e., CD4^+CD25^+ Foxp3^+ cells) and analyzed by FACS.
# [7] = test system: mouse immunostimulatory dendritic cells and mouse T cells; assay: Allogenic MLR assay with murine BM-DCs and T cells; format: cell-based
# Experimental: C57/BL6 mice and BALB/C mice (male or female; Charles River, Wiga, Sulzfeld, Germany) were used at the ages of between 1 and 4 months. Generation of bone-marrow-derived dendritic cells (“BM-DCs”) was performed as described in Lutz et al. (1999) J. Immunol. Meth. 223: 77. RPMI 1640 (Life Technologies, Karlsruhe, Germany) was supplemented with 100 U/ml penicillin (Sigma), 100 μg/ml streptomycin (Sigma), 2 mM L-glutamine (Sigma), […] (Sigma), and 10% heat-inactivated filtered FCS (PAA, Colbe, Germany). GM-CSF was used at 200 U/ml (PrepoTech/Tebu, Rocky Hill, N.J.) on days 0, 3, 6 and 8 of the incubation period.
# An allogenic MLR assay was performed as follows: CD4^+ and CD8^+ T cells were isolated from inguinal and […] lymph nodes of BALB/C mice and co-cultured (2×10^5 cells/well) for 3 days with BM-DCs (at different ratios) that had been processed through day 9 of the preparation protocol for BM-DCs. Culture was in 96-well culture dishes, and the media was 200 microliters RPMI 1640 supplemented with 100 U/ml penicillin, 100 µg/ml streptomycin, 2 mM L-glutamine, […], and 10% heat-inactivated filtered FCS. […] The culture supernatants were harvested onto glass fiber filters using an Inotech 1H-110 harvester (Inotech, Dottikon, Switzerland), and filters were counted in a Wallac 1450 microplate counter (Wallac, Turku, Finnland).
# [8] = test system: dendritic cells; settings: soluble CD83 4 μg/ml in final maturation step, cited from earlier work
# [9] = test system: donor-specific allo-antibody (IgM, IgG); assay: Allo-antibody in transplant recipient sera (staining of donor splenocytes); format: in vivo, mouse; settings: C3H heart in C57BL/6; sera eight days after transplantation
# Experimental: In these experiments, sera were collected from transplant recipients (from control-treated, sCD83-treated and treatment-naïve individuals). Splenocytes were removed from the transplant donor(s) and incubated with the transplant recipient sera. The binding of antibodies from the allo-anti sera to the surface of the transplant donor splenocytes was monitored selectively using antibodies specific for the Fc-fragments of mouse IgM and IgG. […] Stained cells can be analyzed using FACS.
# In the transplantation procedure, hearts were removed from C3H mice and transplanted into C57BL/6 mice, which were then either treated with sCD83 or left untreated. Sera were collected from the C57BL/6 transplant recipients eight days after transplantation (the approximate time when untreated mice would typically reject the transplant (i.e., show full tissue rejection)). This recipient sera was then used to stain splenocytes from the C3H donors, and allo-antibody binding was detected with FITC-conjugated antibodies specific to either the anti-IgG or anti-IgM Fc-fragment. […] Sera from untreated transplant recipients was also able to stain C3H-donor-derived splenocytes above control levels.
# [10] = test system: T cells stimulated with allogeneic mature dendritic cells; assay: Regulatory T cell generation by sCD83-treated allogeneic dendritic cells; format: cell-based, cynomolgous monkeys; settings: DCs treated with sCD83 50 μg/ml; different DC:T ratios
# Experimental: Regulatory T cells were also prepared using dendritic cells prepared from cynomolgous monkeys, as follows. Cynomolgous monkey myeloid dendritic cells were generated from CD14^+ monocyte cells in the presence of GM-CSF and IL-4 for 7 days; soluble CD83 at 50 ug/ml was added to some cultures on days 3 through 7, and a maturation cocktail of IL-1(3, IL-6, TNF-α and PGE-2 was added on days 5 through 7. T cells (1×10^6/ml) were isolated by negative selection and stimulated at different ratios with the allogeneic mature dendritic cells that had been either treated or untreated with sCD83 (50 μg/ml). Cells were then stained to identify regulatory T cells (i.e. CD4^+CD25^+ Foxp3^+ cells) and analyzed by FACS.
# [11] = test system: spleen cells (lymphocytes); assay: KLH restimulation of spleen cells from sCD83-treated EAE mice; format: in vivo, mouse; settings: sCD83 100 μg daily for ten days, KLH 28 days after last injection, spleen cells ten days later
# Experimental: In order to induce EAE, mice were immunized with a peptide derived from myelin oligodendrocyte glycoprotein (MOG), a constituent of the myelin sheath surrounding neurons of the central nervous system, and with pertussis toxin (see, e.g., Zinser et al. (2004) J. Exp. Med. 200: 345-351). Beginning ten days later, the mice were inoculated with soluble CD83 (100 μg) every day for ten days. 28 days after the last injection of soluble CD83, mice were injected subcutaneously with keyhole limpet hemocyanin (“KLH,” 10 μg/mouse). Ten days later, spleen cells were removed from the mice and restimulated with different doses of KLH. Lymphocyte proliferation in response to this stimulation was measured by [^3H]-thymidine incorporation.
# [12] = test system: mDCs; assay: TNF-α and activation markers in mDCs of PBMCs stimulated with LPS and IFN-γ; format: cell-based, cynomolgus monkeys; settings: PBMCs incubated overnight with sCD83; LPS 1 μg/ml and IFN-γ 100 U/ml for 6 hours
# Description: We wished to examine the in vitro functional properties of human sCD83 on peripheral blood DCs, monocytes, and T cells. Mature DCs (“mDCs”) from cynomolgus monkeys were identified using FACS with four-color staining as cells that were HLA-DR positive, lineage negative (i.e. CD3, CD20, CD14, and CD16 negative), and CD11c positive. Intracellular TNF-α, IL-6, and surface markers CD83, CD80, CD86, and CCR5 (which are increased in activated, mature DCs) were also monitored.
# (§1) To evaluate the effect of sCD83 on mDCs, isolated PBMCs (1×10^6 cells) from cynomolgus monkeys were incubated overnight with sCD83. Cells were stimulated with LPS (1 μg/ml) and IFN-γ (100 U/ml) for 6 hours. Intracellular TNF-α levels and surface markers were detected in mDCs using FACS. Results representative of one out of three experiments are shown in FIG. 11; results were expressed as % positive cells and mean fluorescence units (MFU).
# [13] = test system: monocytes; assay: TNF-α and activation markers in monocytes of PBMCs; format: cell-based, cynomolgus monkeys; settings: PBMCs incubated overnight with sCD83
# Experimental: as §1, with “monocytes,” for “mDCs,”, “sCD83 (1×10^6 cells).” for “sCD83. Cells were stimulated with LPS (1 μg/ml) and IFN-γ (100 U/ml) for 6 hours.”, “monocytes” for “mDCs”, “12;” for “11;”
# [14] = test system: B cells of transplant recipient; assay: Ex vivo proliferation of transplant recipient B-cells; set-up: species or system mouse; settings: C3H heart in C57BL/6; sCD83 100 μg daily i.p.; B cells day 8, stimulated with LPS
# Experimental: Antibody Production Protocols for ex vivo Work: B cell proliferation: C57B1/6 mice were given a heterotopic cardiac allograft from a C3H mouse. Mice were then left untreated or were treated with a daily dose of 100 μg of sCD83 by intraperitoneal injection. Mice were then sacrificed on day 8, which was approximately the mean survival time of untreated mice. B-cells were then harvested from the mouse spleens and pure populations of 10^5 B-cells/well were cultured with 2 μg/mL of LPS to stimulate the cells (with no added sCD83). After 48 hours of culture, ^3H-thymidine was added, and after an additional 18-20 hours of culture, the cells were harvested and ^3H-thymidine incorporation was measured.
# Eight days after transplantation (when the transplant would typically be rejected in untreated mice), the mice were sacrificed. B cells were purified from recipient mice, cultured, and stimulated with LPS. ^3H-thymidine incorporation was measured as counts per minute (cpm).
# [15] = sCD83 100 μg i.p. daily days 1-7 then q.o.d. days 8-16, sirolimus 2 mg/kg p.o. days 0-14, anti-CD45RB mAb 100 μg i.v. days 0-14
molecule,measurement,setting,value
"CO[C@H]1C[C@@H]2CC[C@@H](C)[C@@](O)(O2)C(=O)C(=O)N2CCCC[C@H]2C(=O)O[C@H]([C@H](C)C[C@@H]2CC[C@@H](O)[C@H](OC)C2)CC(=O)[C@H](C)/C=C(\C)[C@@H](O)[C@@H](OC)C(=O)[C@H](C)C[C@H](C)/C=C/C=C/C=C/1C [Sirolimus, sirolimus, reference compound]",MST,[1],21.3 ± 6.2 days
same,MST,[2]; [15],16.7 ± 2.1 days
"C=CC[C@@H]1/C=C(\C)C[C@H](C)C[C@H](OC)[C@H]2O[C@@](O)(C(=O)C(=O)N3CCCC[C@H]3C(=O)O[C@H](/C(C)=C/[C@@H]3CC[C@@H](O)[C@H](OC)C3)[C@H](C)[C@@H](O)CC1=O)[C@H](C)C[C@@H]2OC [Tacrolimus, tacrolimus, reference compound]",MST,[3],16.3 ± 1.0 days
"sCD83: recombinant extracellular domain of human CD83 cleaved from GST fusion, with four extra amino acids (Gly-Ser-Pro-Gly) at the amino terminal (protein, listed as Homo sapiens, printed: Gly-Ser-Pro-Gly; (1)..(125) Extracellular domain of human CD83, recombinant extracellular domain of human CD83 cleaved from GST fusion, with four extra amino acids (Gly-Ser-Pro-Gly) at the amino terminal) GSPGTPEVKVACSEDVDLPCTAPWDPQVPYTVSWVKLLEGGEERMETPQEDHLRGQHYHQKGQNGSFDAPNERPYSLKIRNTTSCNSGTYRCTLQDPDGQRNLSGKVILRVTGCPAQRKEETFKKYRAE",Tolerization to KLH (re-stimulation assay),[4],not tolerized to the antigen
same,MST,[1],10.0 ± 1.4 days
same,Acute rejection / graft acceptance (in words),[2]; sCD83 100 μg,reduced symptoms of acute rejection
same,MST,[2]; [15],10.7 ± 1.5 days
same,MST,[2]; sCD83 266 ug,14.7 ± 0.6 days
same,MST,[2]; sCD83 400 ug,15 ± 1.0 days
same,"Ex vivo antibody production (IgM and IgG, ELISA)",[5],suppresses
same,MST,[3],15.8 ± 1.0 days
same,Generation of regulatory T cells (CD4+CD25+ Foxp3+ cells),[6],promoted the generation of regulatory T cells
same,Cluster formation between dendritic cells and T cells,[7],inhibited
same,Ability of murine immunostimulatory dendritic cells to stimulate T cells,[7]; [3H]-thymidine,inhibited in a concentration-dependent manner
same,CD14 positive cells,[8]; compared with normally matured DCs,increase
same,Cell surface expression of CD80,[8]; normally matured DCs 96%,66%
same,Cell surface expression of CD83,[8]; normally matured DCs 96%,30%
same,Allo-antibody activity (donor-specific binding of IgM or IgG),[9],low allo-antibody activity; also recorded: can prevent the induction of an allo-antibody response
same,Regulatory T cells generated by dendritic cells,[10],increased numbers of regulatory T cells
same,Lymphocyte proliferation in response to KLH ([3H]-thymidine incorporation),[11],"did not induce long-lasting, global immunosuppression"
same,In vitro production of TNF-α by mDCs,[12],suppressed
same,"Surface expression of mDC activation markers CD83, CD86, CCR5, and CD80",[12],suppressed
same,In vitro production of TNF-α by monocytes,[13],moderately suppressed
same,Surface expression of monocyte activation markers,[13],moderately suppressed
same,Ex vivo B-cell proliferation (3H-thymidine incorporation),[14],suppresses
